Experimental data: patent US20140105905A1 (Amgen, published 2014)
Numbering of substitutions follows the chain as printed. Each block holds one binder with its values, some of them ahead of it.

What was measured:
[1] = molecular target: T1, recombinant human Interleukin-8 (human, UniProt P10145 28-99); experiment: KinExA equilibrium in solution, 36 h, mAb 200 pM
T1 construct: also called rhIL-8; IL-8
T1 sequence (looked up): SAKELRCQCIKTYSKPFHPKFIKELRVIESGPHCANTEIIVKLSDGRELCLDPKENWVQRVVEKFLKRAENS
Experimental: (§1) The experiments with KinExA were performed using an automated flow immunoassay system, KinExA 3000 [Ohmura et al., Anal. Chem. 73:3392, 2001] in which rhIL-8-coupled beads served as the solid phase. […] Antigen/antibody complexes were incubated at RT for 36 h to 144 h to allow equilibrium to be reached. The mixture was drawn through the rhIL-8-coupled beads to accumulate unbound antibody. The captured anti-hIL-8 mAb is directly proportional to the remaining free binding sites and was detected using solutions containing Cy5-conjugated anti-human secondary antibody in sample buffer. The concentrations, volumes, and flow rates of the secondary antibody solutions were varied to optimize the signal to noise ratio in each experiment. The bound signals were converted into relative values as a proportion of control in the absence of rhIL-8. The equilibrium dissociation constant (Kd) was obtained from nonlinear regression analysis of the data using a one-site homogeneous binding model contained within the software [Blake et Al., Anal. Biochem. 272:123, 1999; Jones et al., Bioconjug Chem 13:408, 2002]. […]
(§2) A proportionate amount of free mAb present in the equilibrium mixture was measured by flowing 0.25 ml to 3 ml of the sample on rhIL-8 coupled to CNBr-activated Sepharose beads and detected using 1.0 ml of 1.7 μg/ml of Cy5-labeled goat anti-human IgG Fcγ fragment-specific secondary antibody. […]

[2] = molecular target: T1, recombinant human Interleukin-8; experiment: KinExA "Kinetics, Direct" method
Excerpt: (§3) For measuring the association rate constant using KinExA, the same rhIL-8-coupled beads were used as the probe and the “Kinetics, Direct” method was used. The “Kinetics, Direct” experiments by KinExA are identical to KinExA equilibrium assays with respect to bead column height, antibody capture, antibody concentration and antibody detection. Briefly, the mAb was mixed with an amount of antigen that bound approximately 80% of the mAb in the equilibrium experiments and the free antibody present in the sample was probed repeatedly, pre-equilibrium. […] The volumes and flow rates of the antigen-mAb mixtures and the Cy5-labeled secondary antibody were varied depending upon the mAb tested. Data was analyzed utilizing the KinExA analysis software that comes with the KinExA 3000 instrument. This software graphically represents the decrease in binding signals over time, and fits the collected data points to an exact solution of the kinetic differential equations for binding. From this curve, an optimal solution for the kₒₙ is determined. The koff is indirectly calculated from solutions for the kₒₙ and Kd.
(§4) The on-rate measurement by KinExA is not limited by the mAb concentration used in the experiment. […] The concentration of mAb used for on-rate experiments was the same as those used in equilibrium binding experiments. An amount of IL-8 that bound 80% of the mAb in equilibrium binding experiments was mixed with the mAb. The amount of free mAb left in the mixture was measured in KinExA by flowing 1 ml of the mixture repeatedly through rhIL-8 coupled to NHS-activated Sepharose beads and detected using 1 ml of 2.0 μg/ml of Cy5-labeled goat anti-human IgG Fcγ fragment-specific secondary antibody. The kₒₙ was measured using the KinExA software by the “Kinetic, Direct” method and the 95% confidence intervals are given as kₒₙ range. The koff for the mAb was calculated from the measured kₒₙ and Kd of the respective mAb.

[3] = molecular target: T1, recombinant human Interleukin-8; experiment: KinExA equilibrium, optimized, n-curve analysis, mAb 4.6 and 27 pM
Excerpt: (§5) The mixture was drawn through the rhIL-8-coupled beads to accumulate unbound antibody. The captured anti-hIL-8 mAb is directly proportional to the remaining free binding sites and was detected using solutions containing Cy5-conjugated anti-human secondary antibody in sample buffer. The concentrations, volumes, and flow rates of the secondary antibody solutions were varied to optimize the signal to noise ratio in each experiment. The bound signals were converted into relative values as a proportion of control in the absence of rhIL-8. The equilibrium dissociation constant (Kd) was obtained from nonlinear regression analysis of the data using a one-site homogeneous binding model contained within the software [Blake et Al., Anal. Biochem. 272:123, 1999; Jones et al., Bioconjug Chem 13:408, 2002]. […]
(§6) A proportionate amount of free mAb present in the equilibrium mixture was measured in KinExA under optimized conditions. For example, for the mixtures containing the low concentration of mAb, 18-36 ml of the sample was flown through rhIL-8 coupled to NHS-activated Sepharose beads and detected using 1-2 ml of 2.0 μg/ml of Cy5-labeled goat anti-human IgG Fcγ fragment-specific secondary antibody. The Kd was calculated using KinExA software by using the “n-curve analysis” selection.

[4] = molecular target: T1, recombinant human Interleukin-8; experiment: calculated from KinExA kon and Kd
Excerpt: as §3, §4

[5] = molecular target: T1, recombinant human Interleukin-8; experiment: not named in this sentence (summary of the filing's own affinity results)
[6] = molecular target: T2, IL-8 peptide ELRCQCIKTYSK (human); experiment: overlapping IL-8 peptides on a membrane; column "Recognized epitope"
T2 peptide: ELRCQCIKTYSK
Experimental: Briefly, overlapping IL-8 peptides, which were each two amino acids c-terminal to the previous peptide (as shown in FIG. 8) were prepared and attached to a membrane. Antibodies were then added and allowed to bind to the peptides.

[7] = molecular target: T1, recombinant human Interleukin-8; experiment: KinExA equilibrium in solution, 36 h, mAb 23 pM
Experimental: as §1, §2

[8] = molecular target: T1, recombinant human Interleukin-8; experiment: KinExA equilibrium, optimized, n-curve analysis, mAb 1.3 and 13 pM
Excerpt: as §5, §6

[9] = molecular target: T1, recombinant human Interleukin-8; experiment: KinExA equilibrium in solution, 36 h, mAb 25 pM
Experimental: The experiments with KinExA were performed using an automated flow immunoassay system, KinExA 3000 [Ohmura et al., Anal. Chem. 73:3392, 2001] in which rhIL-8-coupled beads served as the solid phase. […] Antigen/antibody complexes were incubated at RT for 36 h to 144 h to allow equilibrium to be reached. The mixture was drawn through the rhIL-8-coupled beads to accumulate unbound antibody. The captured anti-hIL-8 mAb is directly proportional to the remaining free binding sites and was detected using solutions containing Cy5-conjugated anti-human secondary antibody in sample buffer. The concentrations, volumes, and flow rates of the secondary antibody solutions were varied to optimize the signal to noise ratio in each experiment. The bound signals were converted into relative values as a proportion of control in the absence of rhIL-8. The equilibrium dissociation constant (Kd) was obtained from nonlinear regression analysis of the data using a one-site homogeneous binding model contained within the software [Blake et Al., Anal. Biochem. 272:123, 1999; Jones et al., Bioconjug Chem 13:408, 2002]. The software calculates the Kd and determines the 95% confidence interval by fitting the data points to a theoretical Kd curve. The 95% confidence interval is given as Kd low and Kd high.
A proportionate amount of free mAb present in the equilibrium mixture was measured by flowing 0.25 ml to 3 ml of the sample on rhIL-8 coupled to CNBr-activated Sepharose beads and detected using 1.0 ml of 1.7 μg/ml of Cy5-labeled goat anti-human IgG Fcγ fragment-specific secondary antibody. Each sample was run in triplicate. The Kd was calculated by the KinExA software and the 95% confidence interval is given as the Kd range.

[10] = molecular target: T1, recombinant human Interleukin-8; experiment: KinExA equilibrium in solution, 36 h, mAb 10 pM
Experimental: as §1, §2

[11] = molecular target: T1, recombinant human Interleukin-8; experiment: KinExA equilibrium in solution, 36 h, mAb 90 pM
Experimental: as §1, §2

[12] = molecular target: T1, recombinant human Interleukin-8; experiment: KinExA equilibrium, optimized, n-curve analysis, mAb 18 and 120 pM
Excerpt: as §5, §6

[13] = molecular target: T1, recombinant human Interleukin-8; experiment: KinExA equilibrium in solution, 36 h, mAb 100 pM
Experimental: as §1, §2

Kd [1]: 0.87 nM
B1: anti-hIL-8 mAb 469 (antibody, human IgG2, V domains shown)
VH: EVQLLESGGGLVQPGGSLRLSCAASGFTFSSYVMSWVRQAPGKGLEWVSAINNSGGSTDYADSVKGRFTISRDNSKNTLYLQMNSLRAEDTAVYYCAKEGRFLEWSLYGLDVWGQGTTVTVSS
VL: DIQMTQSPSSLSASVGDRVTIACRASQGIRNDLGWYQQKPGKAPKRLIYAASSLQSGVPSRFGGSGSGTEFTLTISSLQPEDFATYYCLQHNSYPRTFGQGTKVEIK
notes: also called antibody number 469

kon [2]: 4.8e+06 M⁻¹ s⁻¹
Kd [3]: 0.00329 nM
koff [4]: 1.6e-05 s⁻¹
Kd [5]: ~0.00223 nM
binding result [6]: binds
Kd [7]: 0.0022 nM
B2: anti-hIL-8 mAb 809 (antibody, human IgG2, V domains shown)
VH: QVQLVESGGGVVQPGRSLRLSCAASGFTFSSYGMLWVRQAPGKGLEWVADISYDGSNKYYADSVKGRFTISRDNSKNTLFLQMNSLRAEDTAVYYCARDRIAVADYWGQGTLVTVSS
VL: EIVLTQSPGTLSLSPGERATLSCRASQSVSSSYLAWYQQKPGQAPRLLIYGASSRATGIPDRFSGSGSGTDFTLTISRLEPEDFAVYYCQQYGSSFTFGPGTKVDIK
notes: also called clone 6G11

Kd [8]: 0.003 nM
Kd [9]: 0.0029 nM
kon [2]: 4.4e+06 M⁻¹ s⁻¹
koff [4]: 1.3e-05 s⁻¹
Kd [5]: ~0.00289 nM
B3: anti-hIL-8 mAb 861 (antibody, human IgG2, V domains shown)
VH: QVQLVESGGGVVQPGRSLRLSCAASGFTFSNYGMHWVRQAPGKGLEWVAVIYFEGSNKYNADSVKGRFTISRDNSKNTLYLQMNSLRAEDTAVYYCARSPYGDYLDYWGQGTLVTVSS
VL: EIVLTQSPGTLSLSPGERATLSCRASQTIDYNYLHWYQQKPGQAPRLLIYGTFIRATVIPDRFSGSGSGTDFTLTISRLEPEDIAVYYCQQFGRSPLTFGGGTKVEIK
notes: also called antibody number 861

Kd [13]: 0.2 nM
B8: anti-hIL-8 mAb 1093 (antibody, human IgG2, V domains shown)
VH: QVQLQQWGAGLLKPSETLSLTCAVFGGSFSGYYWTWIRQPPGKGLEWIGEIIHHGSTNYSPSLKSRVTISADTSKSQFSLRLSSVTAADTAVYYCARGGAAAGLDSWGQGTLVTVSS
VL: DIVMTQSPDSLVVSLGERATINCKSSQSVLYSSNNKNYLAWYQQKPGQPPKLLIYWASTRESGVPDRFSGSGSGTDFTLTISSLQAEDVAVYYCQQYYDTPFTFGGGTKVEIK
notes: also called antibody number 1093

Kd [9]: 0.63 nM
B9: anti-hIL-8 mAb 1080 (antibody, human IgG2, V domains shown)
VH: QVQLQQWGAGLLKPSESLSLTCAVYGGSFFSGYYWSWIRQPPGKGLEWIGEITHSGNTNYNPSLKSRVSISVDTSTNQFSLKLSSVTAADTAVYYCGRGGAEVGFDYWGQGTLVTVSS
VL: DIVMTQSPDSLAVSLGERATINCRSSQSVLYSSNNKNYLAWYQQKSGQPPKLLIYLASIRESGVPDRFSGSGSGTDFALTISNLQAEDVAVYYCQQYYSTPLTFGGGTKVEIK

Continued, binder first:

B4: anti-hIL-8 mAb 142 (antibody, human IgG2, V domains shown)
VH: QVQLVQSGAEVKKPGASVKVSCKASGYTFTGYYMHWVRQAPGQGLEWMGWINSNSGGTNYSQKFQGRVTMTRDTSISTVYMELSRLRSDDTAVYYCASGYSYGYRYYYYGMDVWGQGTTVTVSS
VL: DIQMTQSPSSLSASVGDRVTITCRASQGISNSLAWYQQKPGKVPNLLIYAASTLQSGVPSRFSGSGSGTDFTLTISSLQPEDVATYYCQKYNSVPLTFGGGTKVEIK
notes: also called antibody number 142
Kd [9]: 0.4 nM

B5: anti-hIL-8 mAb 203 (antibody, human IgG2, V domains shown)
VH: B4 VH with M34I, Y60F, S61A, V79A, S88P, S101R
VL: B4 VL with N45K, K107N
notes: also called antibody number 203
Kd [9]: 0.19 nM

B6: anti-hIL-8 mAb 33 (antibody, human IgG2, V domains shown)
VH: QVQLQQWGAGLLKPSETLSLTCAVYGGFFSGYYWSWIRQPPGKGLEWIGEINHSGSTNYNPSLKSRVTISVDTSKNQFSLKLISVTAADTAVYYCARGSAAEAFDIWGQGTMVTVSS
VL: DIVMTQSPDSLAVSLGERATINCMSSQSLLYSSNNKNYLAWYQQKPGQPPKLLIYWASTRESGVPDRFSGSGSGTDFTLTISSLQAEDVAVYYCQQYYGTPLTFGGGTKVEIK
notes: also called antibody number 33
Kd [10]: 0.28 nM

B7: anti-hIL-8 mAb 837 (antibody, human IgG2, V domains shown)
VH: B8 VH with S28T, I51V, G103A, T114I
VL: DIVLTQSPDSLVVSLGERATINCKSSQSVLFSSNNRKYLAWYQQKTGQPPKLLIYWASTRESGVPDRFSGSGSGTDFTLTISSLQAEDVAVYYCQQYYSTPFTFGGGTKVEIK
notes: also called clone 36C6; ABXha-IL-8
Kd [11]: 0.011 nM
kon [2]: 1.1e+06 M⁻¹ s⁻¹
koff [4]: 1.9e-05 s⁻¹
Kd [5]: ~0.0109 nM
binding result [6]: binds
Kd [12]: 0.0157 nM
